For assay [1], the target named is T1, recombinant protein His-fib-hTL1A (human).
T1 construct: expressed in HEK293 cells; also called human TL1A
T1 chain: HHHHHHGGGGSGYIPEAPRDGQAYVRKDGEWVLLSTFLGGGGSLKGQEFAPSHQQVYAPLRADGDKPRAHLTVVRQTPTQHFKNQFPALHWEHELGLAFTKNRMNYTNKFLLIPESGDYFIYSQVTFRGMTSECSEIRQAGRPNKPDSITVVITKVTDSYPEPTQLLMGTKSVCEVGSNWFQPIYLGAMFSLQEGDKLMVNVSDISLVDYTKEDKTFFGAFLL
In words: SPR, Biacore T200; antibody captured by anti-human IgG (Fc), TL1A as analyte; 1:1 model. For orientation: Surface plasmon resonance follows binding to a sensor surface in real time, without labels.

Assay [2] addresses T1, recombinant protein His-fib-hTL1A. In words: cell-based or functional assay.
Assay [3] has as its target T2, recombinant protein His-fib-mTL1A (mouse).
T2 construct: also called mouse TL1A
T2 chain: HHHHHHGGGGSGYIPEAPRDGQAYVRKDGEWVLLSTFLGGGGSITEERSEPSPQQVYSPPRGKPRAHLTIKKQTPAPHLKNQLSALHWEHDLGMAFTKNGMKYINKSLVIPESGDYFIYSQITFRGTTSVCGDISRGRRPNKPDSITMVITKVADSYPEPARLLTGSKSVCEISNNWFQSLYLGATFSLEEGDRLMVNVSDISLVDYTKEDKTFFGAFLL
In words: SPR, Biacore T200; antibody captured by anti-human IgG (Fc), TL1A as analyte; 1:1 model.

Assay [4] addresses T3, recombinant protein His-fib-mfTL1A (Macaca fascicularis).
T3 construct: also called monkey TL1A; Macaca fascicularis TL1A
T3 chain: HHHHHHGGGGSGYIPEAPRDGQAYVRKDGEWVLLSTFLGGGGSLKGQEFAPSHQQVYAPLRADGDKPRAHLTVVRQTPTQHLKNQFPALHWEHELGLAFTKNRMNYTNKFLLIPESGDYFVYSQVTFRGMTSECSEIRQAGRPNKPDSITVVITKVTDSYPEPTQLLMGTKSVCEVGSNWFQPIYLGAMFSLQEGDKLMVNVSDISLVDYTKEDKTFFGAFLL
Described as above.

Assay [5] has as its target T3, recombinant protein His-fib-mfTL1A. The assay is described as above.
Assay [6] deals with T1, recombinant protein His-fib-hTL1A. In words: cell-based or functional assay.
Assay [7] has as its target T4, recombinant protein His-fib-rTL1A (rat).
T4 construct: also called rat TL1A
T4 chain: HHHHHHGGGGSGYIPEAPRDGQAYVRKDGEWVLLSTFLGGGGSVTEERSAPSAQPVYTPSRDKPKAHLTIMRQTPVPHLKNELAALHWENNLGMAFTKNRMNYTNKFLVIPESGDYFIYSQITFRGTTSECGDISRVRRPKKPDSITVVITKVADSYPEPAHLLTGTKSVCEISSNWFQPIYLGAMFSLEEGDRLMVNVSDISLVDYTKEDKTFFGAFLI
As to the kind of experiment: SPR, Biacore T200; antibody captured by anti-human IgG (Fc), TL1A as analyte; 1:1 model.

Assay [8] concerns the target T1, recombinant protein His-fib-hTL1A. Described as above.
Assay [9] has the same target. As to the kind of experiment: cell-based or functional assay.
Assay [10] has as its target T2, recombinant protein His-fib-mTL1A. In words: SPR, Biacore T200; antibody captured by anti-human IgG (Fc), TL1A as analyte; 1:1 model.
The target of assay [11] is T1, recombinant protein His-fib-hTL1A. In words: cell-based or functional assay.
The target is the same in assay [12]. In words: cell-based or functional assay.
The target in assay [13] is T2, recombinant protein His-fib-mTL1A. In words: SPR, Biacore T200; antibody captured by anti-human IgG (Fc), TL1A as analyte.
Assay [14] concerns the target T4, recombinant protein His-fib-rTL1A. Described as above.

Read-outs that look alike come from different tables or passages of the source.

B1: anti-TL1A monoclonal antibody RVT-3101 (antibody, V domains shown)
VH: QVQLVQSGAEVKKPGASVKVSCKASGYDFTYYGISWVRQAPGQGLEWMGWISTYNGNTHYARMLQGRVTMTTDTSTRTAYMELRSLRSDDTAVYYCARENYYGSGAYRGGMDVWGQGTTVTVSS
VL: EIVLTQSPATLSLSPGERATLSCRASQSVSSYLAWYQQKPGQAPRLLIYDASNRATGIPARFSGSGSGTDFTLTISSLEPEDFAVYYCQQRSNWPWTFGQGTKVEIK
B1: the Kd in [1] is 0.144 nM; in assay [3], 0.0775 nM; in [4], 0.05 nM; in [5], 0.0275 nM; in assay [7], 0.434 nM; in assay [8], 0.154 nM. For the same molecule, the Kd in assay [10] was determined as 0.0482 nM. Further, the koff was found to be 0.000102 s⁻¹ in assay [1]; 5.92e-05 s⁻¹ in assay [3]; 6.7e-05 s⁻¹ in assay [4]; 4.51e-05 s⁻¹ in [5]; 0.000424 s⁻¹ in assay [7]; 0.0001 s⁻¹ in assay [8]. The koff in assay [10] was determined as 4.36e-05 s⁻¹. In addition, the association rate constant (kon) in [1] worked out at 706000 M⁻¹ s⁻¹; in [3], 764000 M⁻¹ s⁻¹; in assay [4], 1.34e+06 M⁻¹ s⁻¹; in assay [5], 1.64e+06 M⁻¹ s⁻¹; in [7], 978000 M⁻¹ s⁻¹; in assay [8], 652000 M⁻¹ s⁻¹. Also, in assay [10], the kon was found to be 904000 M⁻¹ s⁻¹. Besides, the “IC50 of inhibition of NF-kB activation in TL1A-stimulated 293T-hDR3-NF-kB-RE-luci cells” value (“IC50 of inhibition of NF-kB activation” for short) in assay [2] came out at 1.28 nM; in assay [11], 1.08 nM. Further, the “IC50 of inhibition of interferon-gamma secretion by TL1A-stimulated PBMCs” value in assay [6] turned out to be 13.6 nM. The “IC50 of inhibition of caspase-3/7 activation in TL1A-stimulated TF-1 cells” value in [9] came out at 3.13 nM. Further, the “IC50 of inhibition of caspase activation in TL1A-stimulated TF-1 cells” value in [12] amounted to 3.46 nM.

B2: mouse anti-TL1A monoclonal antibody S4D3 (antibody, V domains shown)
VH: QVQLKESGSDLATPGASVKLSCKVSGYTFTKYDINWVRQRPEQGLEWIGWIFPGDGRTDYNEKFKGKATLTIDTSSSTAYMQLSRLTSEDSAVYFCARYGYALDYWGQGTSVTVSS
VL: DVVMTQTPLSLPVSLGDQASISCRSSQNIVHSNGDTYLEWFLQKPGQSPKLLIYKVSNRFSGVPDRFSGSGSGTDFTLKISRVEAEDLGVYYCFQGSHFPYTFGGGTKLEMKR
On to B2, for which the binding result in assay [13] is “no binding”. In addition, the “IC50 of inhibition of NF-kB activation” value in assay [2] worked out at 1.13 nM. For the same molecule, in assay [5], the Kd amounted to 0.0489 nM, the koff was determined as 6.31e-05 s⁻¹ and the kon came to 1.29e+06 M⁻¹ s⁻¹. In addition, in assay [8], the dissociation constant (Kd) amounted to 0.247 nM, the koff was 0.000131 s⁻¹ and the kon came to 532000 M⁻¹ s⁻¹. For the same molecule, the “IC50 of inhibition of caspase-3/7 activation in TL1A-stimulated TF-1 cells” value in assay [9] was 3.05 nM.

B3: anti-TL1A monoclonal antibody PRA023 (antibody, V domains shown)
VH: QVQLVQSGAEVKKPGASVKVSCKASGFDIQDTYMHWVKQRPGQGLEWMGRIDPASGHTKYDPKFQVRVTITRDTSTSTVYLELSSLRSEDTAVYYCARSGGLPDVWGQGTTVTVSS
VL: EIVLTQSPGTLSLSPGERATLSCRASSSVSYMYWYQQKPGQAPRPLIYATSNLASGIPDRFSGSGSGTDFTLTISRLEPEDFAVYYCQQWEGNPRTFGGGTKLEIK
As for B3, the Kd in assay [1] is 0.355 nM; in assay [4], 0.0802 nM; in assay [5], 0.0802 nM; in assay [8] it was 0.355 nM. Besides, the koff is 0.000169 s⁻¹ in [1], 9.01e-05 s⁻¹ in assay [4], 9.01e-05 s⁻¹ in [5] and 0.000169 s⁻¹ in assay [8]. Besides, the kon came to 476000 M⁻¹ s⁻¹ in assay [1], 1.12e+06 M⁻¹ s⁻¹ in assay [4], 1.12e+06 M⁻¹ s⁻¹ in assay [5] and 476000 M⁻¹ s⁻¹ in [8]. For the same molecule, the binding result in assay [13] and in assay [14] was “no binding” in each case. The “IC50 of inhibition of interferon-gamma secretion by TL1A-stimulated PBMCs” value in assay [6] worked out at 6.54 nM. In [11], the “IC50 of inhibition of NF-kB activation” value came to 2.81 nM. Also, the “IC50 of inhibition of caspase activation in TL1A-stimulated TF-1 cells” value in [12] worked out at 6.52 nM.

B4: mouse anti-TL1A monoclonal antibody S9H9 (antibody, V domains shown)
VH: QVQLKQSGAELVRPGTSVKISCKASGYAFTNYWLGWIKQRPGHGLEWIGDIHPGRGNIFYNEKFKGKATLTADKSSSTAYMQLSSLTSEDSAVYFCAEGYDTFDYWGQGTTLTVSA
VL: DIVMTQSHKFMSTSVGDRVSITCKASQDVSTAVAWYQQKPGQSPKLLIYSASYRYTGVPDRFTGSGSGTDFTFTISSVQAEDLAVYYCQQHYSTPWTFGGGTKLEMKR
For B4, the “IC50 of inhibition of NF-kB activation” value in assay [2] was determined as 1.28 nM. For the same molecule, in assay [5], the Kd is 0.0603 nM, the koff turned out to be 0.000175 s⁻¹ and the kon was found to be 2.9e+06 M⁻¹ s⁻¹. Further, in assay [8], the Kd worked out at 0.0374 nM, the koff was found to be 0.000501 s⁻¹ and the association rate constant (kon) turned out to be 1.34e+07 M⁻¹ s⁻¹. Besides, the “IC50 of inhibition of caspase-3/7 activation in TL1A-stimulated TF-1 cells” value in assay [9] worked out at 2.69 nM. Also, in assay [10], the Kd came out at 37.2 nM, the koff was 0.00255 s⁻¹ and the kon came out at 68600 M⁻¹ s⁻¹.

B5: mouse anti-TL1A monoclonal antibody S7B11 (antibody, V domains shown)
VH: QVKLQQSGGELVRPGTSVKISCKASGYAFTNYWLGWIKQRPGHGLEWIGDIHPGRGNIYYNEKFKGKATLTADKSSSTAYMQLSSLTSEDSAVYFCAEGYDTFDYWGQGTTLTVSS
VL: DIVMTQSPSYLAASPGETITINCRASKSISKYLAWYQEKPGKTNKLLIYSGSTLQSGIPSRFSGSGSGTDFTLTISSLEPEDFAMYYCQQHNEYPYTFGGGTKLEIKR
Take B5: the “IC50 of inhibition of NF-kB activation” value in [2] is 1.35 nM. In addition, in assay [5], the equilibrium dissociation constant (Kd) is 0.052 nM, the dissociation rate constant (koff) was 6.93e-05 s⁻¹ and the on-rate (kon) stood at 1.32e+06 M⁻¹ s⁻¹. Moreover, in assay [8], the Kd was determined as 0.234 nM, the koff is 0.00011 s⁻¹ and the kon was 470000 M⁻¹ s⁻¹. In assay [9], the “IC50 of inhibition of caspase-3/7 activation in TL1A-stimulated TF-1 cells” value turned out to be 2.69 nM. Further, in assay [10], the Kd was found to be 53.5 nM, the koff came to 0.00366 s⁻¹ and the kon worked out at 68300 M⁻¹ s⁻¹.

The term Kd denotes the concentration at which binding is half-saturated. As usually defined, the koff is a measure of how fast the partners let go of each other. By kon is commonly meant a measure of how fast the partners come together.
